The results in this text go back to the Immune Epitope Database (IEDB).

For test [1], the target named is HLA-A*02:01. Kind of test: IEDB peptide-MHC binding, purified MHC/competitive/radioactivity; ≥ and ≤ were set here for values at or beyond the usual limits of such assays.
In test [2] the target is HLA-A*03:01. The experiment in a line: IEDB peptide-MHC binding, purified MHC/direct/fluorescence; filed as Kd, often an IC50 or EC50 that approximates it; ≥ and ≤ were set here for values at or beyond the usual limits of such assays.
Test [3] deals with HLA-B*51:01. The description is as above. The following applies: source organism: Vibrio parahaemolyticus AQ3810.
The target in test [4] is HLA-A*02:16. The test is described as above. As to conditions: source organism: Vibrio parahaemolyticus AQ3810.
Test [5] has as its target HLA-A*02:01. The description is as above.
In test [6] the target is HLA-B*15:01. The test is described as above.
In test [7] the target is HLA-A*02:12. The test is described as above. The following applies: source organism: Vibrio parahaemolyticus AQ3810.
The target of test [8] is HLA-B*18:01. The description is as above. As to conditions: source organism: Vibrio parahaemolyticus AQ3810.
The target in test [9] is HLA-A*02:03. The description is as above. The following applies: source organism: Vibrio parahaemolyticus AQ3810.
Test [10] has as its target HLA-A*24:03. The description is as above.
Test [11] addresses HLA-B*57:01. Described as above.
Test [12] addresses HLA-B*39:01. Described as above. As to conditions: source organism: Vibrio parahaemolyticus AQ3810.
Test [13] has as its target HLA-B*27:03. The test is described as above. As to conditions: source organism: Vibrio parahaemolyticus AQ3810.
Test [14] addresses HLA-A*02:11. The test is described as above. The following applies: source organism: Vibrio parahaemolyticus AQ3810.
The target of test [15] is HLA-A*02:19. Described as above. As to conditions: source organism: Vibrio parahaemolyticus AQ3810.
Test [16] has as its target HLA-A*26:01. Described as above.
In test [17] the target is HLA-B*46:01. The test is described as above. The following applies: source organism: Vibrio parahaemolyticus AQ3810.
Test [18] addresses HLA-C*03:03. The description is as above. The following applies: source organism: Listeria monocytogenes EGD-e.
The target in test [19] is HLA-C*08:02. The description is as above.
For test [20], the target named is HLA-A*69:01. Described as above.
Test [21] concerns the target HLA-A*01:01. Kind of test: IEDB peptide-MHC binding, purified MHC/competitive/fluorescence; filed as Kd, often an IC50 or EC50 that approximates it; ≥ and ≤ were set here for values at or beyond the usual limits of such assays. As to conditions: source organism: Yersinia pestis Antiqua.
Test [22] deals with HLA-A*03:01. The test is described as above. The following applies: source organism: Yersinia pestis Antiqua.
The target of test [23] is HLA-B*35:01. The description is as above. The following applies: source organism: Yersinia pestis Antiqua.
Test [24] has as its target HLA-A*01:01. Kind of test: IEDB peptide-MHC binding, purified MHC/direct/fluorescence; filed as Kd, often an IC50 or EC50 that approximates it; ≥ and ≤ were set here for values at or beyond the usual limits of such assays.
Test [25] has as its target HLA-B*08:01. The description is as above.
The target in test [26] is HLA-B*58:01. Described as above.
The target in test [27] is HLA-B*07:02. Described as above.
Test [28] concerns the target HLA-B*27:05. The test is described as above.
In test [29] the target is HLA-B*40:01. The description is as above.
In test [30] the target is HLA-A*30:01. The test is described as above.
The target of test [31] is HLA-B*44:02. Described as above.
Test [32] has as its target HLA-B*73:01. The test is described as above.
In test [33] the target is HLA-A*31:01. The test is described as above.
Test [34] has as its target HLA-C*05:01. Described as above.
Test [35] concerns the target HLA-C*12:03. The test is described as above. The following applies: source organism: Toxoplasma gondii ME49.
Test [36] concerns the target HLA-B*48:01. The description is as above. The following applies: source organism: Brucella suis.
The target of test [37] is HLA-B*08:02. Described as above. As to conditions: source organism: Salmonella enterica subsp. enterica serovar Typhimurium str. LT2.
Test [38] concerns the target HLA-A*24:02. Described as above. The following applies: source organism: Salmonella enterica subsp. enterica serovar Typhimurium.
Test [39] addresses HLA-A*11:01. The description is as above. The following applies: source organism: Salmonella enterica subsp. enterica serovar Typhimurium.
[40] abbreviates: source organism: Vibrio parahaemolyticus AQ3810.
[41] abbreviates: source organism: Vibrio parahaemolyticus.
Where [42] appears, read: source organism: Toxoplasma gondii.
[43] abbreviates: source organism: Salmonella enterica.
[44] abbreviates: source organism: Salmonella enterica subsp. enterica serovar Typhimurium.
The mark [45] stands for this setting: source organism: Salmonella enterica subsp. enterica serovar Typhimurium str. LT2.

What is called IC50 is the midpoint of a concentration-inhibition curve. As for DLNTSAGFPYV, the IC50 in test [1] (source organism: Rhinovirus C) was determined as 0.5 µM.
As a reminder, the Kd is the free concentration of one partner at which half of the binding sites on the other are occupied at equilibrium, for simple one-to-one binding. Read a high Kd as a looser complex. Turning to EPFLVQFWI, the Kd in test [2] (setting [40]) is not below 20 µM; in test [3] it was 0.193 µM; in test [4] it was not below 20 µM; in test [5] (setting [40]), not below 20 µM; in test [6] (setting [40]) it was not below 20 µM; in [7] it was not below 20 µM. Moreover, the Kd in test [8], in test [9], in [10] (setting [40]), in test [11] (setting [40]), in test [12] and in [13] was not below 20 µM each time. The Kd in [14], in [15], in [16] (setting [40]) and in [17] was not below 20 µM each time.
As for FLPDKAIDL, the Kd turned out to be 0.02 µM in test [18], 0.047 µM in [19] (source organism: Listeria monocytogenes EGD-e) and 17 µM in [20] (source organism: Bacillus anthracis).
Regarding FVADSTPLY, the Kd in test [19] (source organism: Yersinia pestis Antiqua) was not below 20 µM; in test [21], 0.0018 µM; in [22], not below 20 µM; in [23], not above 0.0001 µM.
As for GRNSRFPDK, the Kd in test [24] (setting [41]), in test [25] (setting [41]), in [2] (setting [41]), in [26] (setting [41]), in test [27] (setting [41]) and in test [5] (setting [41]) was not below 20 µM throughout. Besides, the Kd in test [6] (setting [41]) is not below 20 µM; in test [28] (setting [41]), 1.04 µM; in test [29] (setting [41]) it was not below 20 µM; in test [30] (setting [41]) it was not below 5 µM; in [20] (setting [41]) it was not below 20 µM; in [31] (setting [41]) it was not below 20 µM. Besides, the Kd in test [16] (setting [41]), in test [32] (setting [40]) and in test [33] (setting [41]) was not below 20 µM in each case.
Consider QYDVPMVSF, for which the values for the Kd in [34] (source organism: Mycobacterium tuberculosis H37Rv) and in test [10] (source organism: Mycobacterium tuberculosis) were not below 20 µM and 0.0184 µM, respectively.
For the sequence RATSHVPEF, the dissociation constant (Kd) in test [35] is 0.148 µM; in test [26] (setting [42]), not below 20 µM; in test [34] (source organism: Toxoplasma gondii ME49) it was not below 20 µM; in test [11] (setting [42]), not below 20 µM.
Regarding RKAGVNQAK, the Kd in test [24] (setting [43]), in test [25] (setting [43]), in test [2] (setting [44]), in test [26] (setting [43]), in [27] (setting [43]) and in test [5] (setting [43]) was not below 20 µM in each case. In addition, the Kd in test [6] (setting [43]) was not below 20 µM; in test [28] (setting [44]), 0.224 µM; in test [29] (setting [43]), not below 20 µM; in test [30] (setting [44]), 12.9 µM; in [20] (setting [43]), not below 20 µM; in [31] (setting [43]) it was not below 20 µM. Moreover, the Kd in test [16] (setting [43]), in test [32] (setting [45]) and in test [33] (setting [43]) was not below 20 µM in each case.
In the case of RRTKLPLTK, the Kd in test [36] is not below 20 µM; in [28] (source organism: Brucella suis) it was 0.0792 µM; in test [32] (source organism: Brucella suis 1330) it was not below 20 µM.
Regarding RTFSPTYGL, the IC50 in [1] (source organism: Homo sapiens) turned out to be 0.408 µM.
In turn, SLDQSVVEL had a dissociation constant (Kd) in test [34] (source organism: Chlamydia trachomatis) of 0.051 µM.
For the sequence TVLEYLVSFGV, the IC50 in [1] (source organism: Hepatitis B virus) turned out to be 0.294 µM.
With YSDIFNNVL, the Kd was 0.075 µM in test [24] (setting [44]); not below 20 µM in test [37]; not below 20 µM in test [25] (setting [45]); not below 20 µM in test [2] (setting [44]); not below 20 µM in test [26] (setting [44]); 0.005 µM in [34] (setting [45]). Moreover, the Kd in [27] (setting [44]) was not below 20 µM; in [6] (setting [44]), not below 20 µM; in [28] (setting [44]) it was not below 20 µM; in test [29] (setting [44]), 0.396 µM; in test [38], not below 20 µM; in [31] (setting [44]) it was not below 20 µM. In addition, the dissociation constant Kd in test [39], in test [16] (setting [45]) and in test [33] (setting [44]) was not below 20 µM each time.
